Measured values reported in paper doi:10.1101/795211 (bioRxiv, 2019).

T1: His-tagged AtYefM co-expressed with AtYoeB from the pET-Duet vector (Agrobacterium tumefaciens strC58, UniProt Q7CY23 1-84)
T1 sequence (looked up): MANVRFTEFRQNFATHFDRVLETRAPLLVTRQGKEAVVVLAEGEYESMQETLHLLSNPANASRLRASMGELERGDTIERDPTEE

B1: His-AtYefM, YefM antitoxin from Agrobacterium tumefaciens expressed alone (pET15b), His affinity tag kept (natural protein, Agrobacterium tumefaciens strC58, UniProt Q7CY23 1-84, looked up)
chain: MANVRFTEFRQNFATHFDRVLETRAPLLVTRQGKEAVVVLAEGEYESMQETLHLLSNPANASRLRASMGELERGDTIERDPTEE
B2: YoeB toxin from Agrobacterium tumefaciens (AtYoeB), expressed alone, after removal of the GST-His affinity tag (natural protein)
chain: MKLVWTLSSWDDYEFWQRTDARMVEKINDLIRNAKRTPFAGLGKPEPLKGDMAGYWSRRITAEHRFVYRVSGSGSEQRLEVIQCRFHYQ
B3: AtYoeB co-expressed with His-AtYefM from the pET-Duet vector (natural protein)
chain: MKLVWTLSSWDDYEFWQRTDARMVEKINDLIRNAKRTPFAGLGKPEPLKGDMAGYWSRRITAEHRFVYRVSGSGSEQRLEVIQCRFHYQ

Key:
SEC-MALS = target: the molecule itself; test: SEC-MALS
[1] = target: T1, His-tagged AtYefM co-expressed with …; test: SEC-MALS

Binder | stoichiometry N (SEC-MALS) | stoichiometry N [1]
B1 | 2 | –
B2 | 2 | –
B3 | – | 1
